Test [1] addresses T1, hu CD20 (Homo sapiens, UniProt P11836).
T1 sequence (P11836 1-297): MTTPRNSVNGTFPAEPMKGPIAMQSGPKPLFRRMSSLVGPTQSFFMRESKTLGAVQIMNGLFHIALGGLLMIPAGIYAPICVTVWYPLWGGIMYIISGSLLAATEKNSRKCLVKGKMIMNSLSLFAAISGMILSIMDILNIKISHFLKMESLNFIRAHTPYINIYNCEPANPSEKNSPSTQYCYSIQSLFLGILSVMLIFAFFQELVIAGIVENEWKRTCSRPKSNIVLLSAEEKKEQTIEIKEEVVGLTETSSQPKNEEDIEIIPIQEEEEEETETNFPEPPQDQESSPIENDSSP
In words: CD20 binding ELISA. As to the method: The interaction of the unmodified and of conjugated anti-CD20 antibodies with CD20 were measured by ELISA assay. […] Plates were washed four times with 100 μl of PBS-0.02% Tween20. and blocked with 25 μl of PBS-0.02% Tween20-1% BSA at 37° C. with shaking at 600 RPM, for 1 h. Plates were then washed four times with 100 μl of PBS-0.02% Tween20. […] Plates were then washed four times with 100 μl of PBS-0.02% Tween20. 25 ul of Streptavidin-Horseradish peroxidase (#RABHRP3, Merck, Buchs, Switzerland) diluted at 1:500 into PBS-0.02% Tween20-0.1% BSA were added to each well and incubated at room temperature for 30 min. Plates were then washed four times with 100 μl of PBS-0.02% Tween20. […] ELISA signal is then measured at 450 nm on an ENSPIRE® plate reader from Perkin Elmer (Schwerzenbach, Switzerland).

In test [2] the target is T2, Human FcRn (Homo sapiens, UniProt P55899).
T2 construct: purchased PerkinElmer AL3095C
In words: FcRn binding AlphaLISA. Conditions: hu FcRN binding aLISA. Here is the method:
Human IgG Conjugated Acceptor Beads (2×) and Streptavidin (SA) Donor Beads were diluted to reach final concentrations of 5 μg/ml.
To wells in the assay plates, 10 ul of diluted antibodies, 10 ul of diluted FcRn, 20 ul of human IgG conjugated Acceptor beads, and SA-Donor beads were added.
On the technique in general: Alpha assays give light when donor and acceptor beads are brought close together.

In test [3] the target is T3, hu FcγRI (CD64) (Homo sapiens, UniProt P12314).
T3 construct: purchased R&D Systems 1257-FC-050
The experiment in a line: Fc gamma receptor binding ELISA. As to the method: (§1) To analyze Fc Receptor gamma binding test molecules were diluted to 2.5 ug/ml in PBS and plates were coated overnight at 4° C. The next day the assay plates were washed four times with 100 ul of wash buffer: PBS+0.02% Tween 20 and blocked with PBS+1% BSA, for one hour at 37° C., with shaking at 600 RPM. The blocked plates were then washed four times with 100 ul wash buffer. Diluted FcRgamma (Reagents listed, below) was freshly diluted in wash buffer. Plates were then incubated with 25 ul of diluted Fc for two hours with shaking at 600 RPMs, then washed with 100 ul wash buffer, four times. The wells were then incubated with 25 ul of either 1:500 diluted streptavidin-Horseradish peroxidase (HRP) for detection of human FcgR or 1:500 diluted Anti-HIS tag antibody-HRP in wash buffer. The HPR detection molecules were incubated in the wells at room temperature for one hour with shaking at 600 RPMs. Plate wells were washed with 100 ul of wash buffer, four times. Plates were detected using the chromogenic HRP substrate 3,3′,5,5;-tetramethylbenzidine (TMB). Samples were read using a spectrophotometer plate reader with OD set to 450 nm.
(In general: An ELISA detects its analyte on a solid surface through an enzyme-linked reagent.)

In test [4] the target is T4, hu FcγRIII (CD16a) (Homo sapiens, UniProt P08637).
T4 construct: purchased R&D Systems 4325-FC-050
The experiment in a line: Fc gamma receptor binding ELISA. Here is the method:
as §1

Test [5] deals with T5, hu FcγRIIb (CD32b) (Homo sapiens, UniProt P31994).
T5 construct: Avi-tag; purchased R&D Systems AVI1875-050
T5 sequence (P31994 43-310): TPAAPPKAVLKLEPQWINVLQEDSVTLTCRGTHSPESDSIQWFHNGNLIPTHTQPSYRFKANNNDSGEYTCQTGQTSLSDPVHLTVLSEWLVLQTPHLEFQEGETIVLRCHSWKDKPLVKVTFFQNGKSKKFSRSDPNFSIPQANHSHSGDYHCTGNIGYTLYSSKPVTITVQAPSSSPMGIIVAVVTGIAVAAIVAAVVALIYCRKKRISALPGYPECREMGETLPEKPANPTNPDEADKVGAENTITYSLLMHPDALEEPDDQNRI
In words: Fc gamma receptor binding ELISA. Here is the method: as §1

Test [6] has as its target T6, mu FcγRI (CD64) (Mus musculus, UniProt P26151).
T6 construct: purchased R&D Systems 2074-FC-050
T6 sequence (P26151 25-404): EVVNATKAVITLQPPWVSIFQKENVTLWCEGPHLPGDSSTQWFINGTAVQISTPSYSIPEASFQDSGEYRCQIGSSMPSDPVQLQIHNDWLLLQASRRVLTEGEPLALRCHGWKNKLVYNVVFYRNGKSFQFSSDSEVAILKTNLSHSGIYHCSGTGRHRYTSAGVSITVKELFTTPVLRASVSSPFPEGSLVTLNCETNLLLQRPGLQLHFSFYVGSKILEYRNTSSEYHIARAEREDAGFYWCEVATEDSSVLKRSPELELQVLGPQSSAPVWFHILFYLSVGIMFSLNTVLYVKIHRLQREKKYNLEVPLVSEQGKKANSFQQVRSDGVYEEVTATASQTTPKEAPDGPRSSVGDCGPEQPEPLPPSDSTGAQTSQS
The experiment in a line: Fc gamma receptor binding ELISA. As to the method:
as §1

Test [7] deals with T7, mu FcγRIII (CD16) (Mus musculus, UniProt P08508).
T7 construct: purchased R&D Systems 1960-FC-050
T7 sequence (P08508 31-261): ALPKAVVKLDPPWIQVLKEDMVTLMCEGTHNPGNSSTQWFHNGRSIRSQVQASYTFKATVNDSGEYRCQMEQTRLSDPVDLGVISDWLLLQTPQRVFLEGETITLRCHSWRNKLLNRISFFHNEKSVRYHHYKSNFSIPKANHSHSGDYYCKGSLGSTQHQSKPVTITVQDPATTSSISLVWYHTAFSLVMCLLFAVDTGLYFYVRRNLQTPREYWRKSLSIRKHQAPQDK
The experiment in a line: Fc gamma receptor binding ELISA. Here is the method: as §1

Test [8] concerns the target T8, mu FcγRIV (CD16-2) (Mus musculus, UniProt A0A0B4J1G0).
T8 construct: purchased R&D Systems 1974-CD-050
T8 sequence (A0A0B4J1G0 21-249): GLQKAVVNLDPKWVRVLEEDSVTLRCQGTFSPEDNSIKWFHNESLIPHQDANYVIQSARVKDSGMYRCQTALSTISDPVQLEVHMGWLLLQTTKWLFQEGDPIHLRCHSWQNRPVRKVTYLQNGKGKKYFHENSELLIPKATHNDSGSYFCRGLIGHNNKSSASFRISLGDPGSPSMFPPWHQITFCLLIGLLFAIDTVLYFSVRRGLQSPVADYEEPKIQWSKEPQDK
The experiment in a line: Fc gamma receptor binding ELISA. Particulars: mu FcγRIV (CD16-2) ELISA. As to the method:
as §1

For test [9], the system named is Raji cells. The experiment in a line: Antibody-dependent cell-mediated cytotoxicity (ADCC) bioassay. In kind it is cell-based, human. Particulars: 25:1 PBMC:Raji, FIG. 6.
Procedure: To determine the effectiveness of antiCD20 IL-2 immunoconjugates in activating immune cell function, an ADCC assay was employed. Human peripheral blood mononuclear cells (hPBMC) and target cells (Raji cells expressing HiBiT) were purchased from Promega as a kit (PBMC ADCC Bioassay Kit Raji, # CS3055A17). […] Once the cells recovered cells were counted. Raji cells were suspended at a concentration of 2×10^5 per ml, and PBMCs were suspended at 5×10^6 per ml. The killing assay was conducted in a 96 well U-bottom plate. Cells were seeded at a ratio of 25:1 Effector cell (PBMC):antiCD20 Target cell (Raji). Plates were incubated for 24 hours at 37 C in 5% CO2. Cell mixtures were treated with serial dilutions of immunocytokines to induce ADCC and placed back in the incubator for an additional 24 hours. Tissue culture supernatants from wells were assayed using Nano-Glo® HiBiT Extracellular assay detection kit.
The subject of test [10] is B cells. In words: B cell depletion in hCD20 transgenic C57BL/6 mice. Conditions: 5 mg/kg single intraperitoneal injection on Day 0, FIG. 7A. In kind it is in vivo.
Procedure: Animal Groupings and administration: 9 animals were randomly enrolled into three study groups based on the body weight 5 days before administration (day −5). Each group consists of 3 mice. Single doses were administered 5 day post grouping (Day 0).
Sample collection: 100 μL whole blood were collected with anticoagulant (DETA-2K) for flow cytometry. Collection time points: Day −5, Day 6, Day 9, Day 14, and Day 21.
Flow cytometry: Preparation of single cell suspensions: For the treatment of spleen samples, the spleen was transferred to a 35 mm culture dish, and then ground with a sterile syringe tail. The cells were washed and centrifuged at 500 g for 5 min at 4° C. The cell pellet was resuspended with 2 ml of red blood cell lysis buffer and incubated for 5-8 min at room temperature. A volume 10 mL of PBS was added to the cell suspension to stop the lysing, and centrifuged at 500 g for 5 min at 4° C. The cells were counted using a blood cell counting chamber. For the treatment of the blood samples, 100 μL of the blood sample was transferred into a 1.5 mL EP tube. To this, 1.4 mL of red blood cell lysis buffer is added, and mixed by inversion. The lysis is carried out for 5-8 min at room temperature. The lysed blood sample is centrifuge at 500 g for 5 min at 4° C. The resultant cell pellet is resuspended in PBS to the required volume for flow cytometry.
The flow cytometry protocol is as follows. […]

T3 sequence (P12314 16-374): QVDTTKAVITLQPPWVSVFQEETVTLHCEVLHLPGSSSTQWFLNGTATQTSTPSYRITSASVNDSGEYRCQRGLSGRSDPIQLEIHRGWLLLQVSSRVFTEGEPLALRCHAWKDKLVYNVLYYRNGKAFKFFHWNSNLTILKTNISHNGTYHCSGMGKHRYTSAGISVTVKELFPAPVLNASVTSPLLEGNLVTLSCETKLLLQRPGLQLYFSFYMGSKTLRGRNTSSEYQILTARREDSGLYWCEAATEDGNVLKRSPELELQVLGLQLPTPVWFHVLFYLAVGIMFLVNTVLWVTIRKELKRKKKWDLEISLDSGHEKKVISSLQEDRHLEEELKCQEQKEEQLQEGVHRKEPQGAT
T4 sequence (P08637 17-254): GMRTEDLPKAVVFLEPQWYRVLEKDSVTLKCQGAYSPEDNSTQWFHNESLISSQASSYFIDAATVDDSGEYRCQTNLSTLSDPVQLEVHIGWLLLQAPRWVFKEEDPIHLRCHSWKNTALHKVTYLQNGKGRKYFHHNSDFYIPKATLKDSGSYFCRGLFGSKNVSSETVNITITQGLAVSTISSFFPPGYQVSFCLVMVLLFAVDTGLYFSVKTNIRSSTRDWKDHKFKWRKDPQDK
T2 sequence (P55899 24-297 limits assumed): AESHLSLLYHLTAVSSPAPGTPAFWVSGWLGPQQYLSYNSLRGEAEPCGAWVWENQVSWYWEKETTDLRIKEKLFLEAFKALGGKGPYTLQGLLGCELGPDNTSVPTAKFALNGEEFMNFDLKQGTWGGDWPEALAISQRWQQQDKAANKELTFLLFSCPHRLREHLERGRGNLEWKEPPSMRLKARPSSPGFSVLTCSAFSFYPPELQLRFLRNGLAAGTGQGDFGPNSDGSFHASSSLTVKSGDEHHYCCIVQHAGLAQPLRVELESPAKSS
T2 sequence (P61769 21-119 partner): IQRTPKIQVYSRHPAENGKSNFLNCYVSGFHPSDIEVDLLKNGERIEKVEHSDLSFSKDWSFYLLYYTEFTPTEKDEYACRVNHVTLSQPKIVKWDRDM

As a reminder, the EC50 is the concentration at which the effect is half-maximal. Read a high EC50 as lower potency in that assay. Turning to “Anti-CD20 Antibody: parent anti-CD20 antibody biosimilar Rituximab, unconjugated”, the 50% effective concentration (EC50) came out at 0.08 nM in [1]; 4 nM in test [2]; 0.23 nM in [3]; 185 nM in test [4]; 880 nM in [5]; 35 nM in [6]. Moreover, the EC50 in [7] came out at 133 nM; in test [8], 20 nM. Further, the “ADCC-targeted cell killing of Raji cells” value in test [9] was “Less cell killing overall”. In addition, the “depletion of B cells” value in [10] is “substantial ability to deplete B cells”.

Values taken from patent US20230201365A1, “MODIFIED CD20 ANTIBODIES AND USES THEREOF” (Bright Peak Therapeutics AG, priority 2021, published 2023).
